Measured values published in paper doi:10.1101/2024.12.05.626941 (bioRxiv, 2024).

Target: the molecule itself
Experiment: SEC

B1: Physcomitrella patens adenosine kinase 1 (PpADK1) (enzyme, UniProt O49923 1-343, looked up)
chain: MASEGVLLGMGNPLLDISCVVDDAFLEKYGLTLNNAILAEDKHLPMYKELAANPDVEYIAGGATQNTIRIAQWMLGESNATSYFGCVGKDEYGDRMFKLASEGGVNIRYDVDEDLPTGTCGVLVVKGERSLVANLSAANKYKIDHLKKPENWAFVEKAKYIYSAGFFLTVSPESMMTVAKHAAETGKYYMINLAAPFICQFFKDPLMELFPYVDFIFGNESEARAFAQVQGWETEDTKVIAVKLAALPKAGGTHKRVAVITQGTDPTIVAEDGKVTEFPVTPIPKEKLVDTNAAGDSFVGGFLSQLVLGKDIAQCVRAGNYAASVIIQRSGCTFPSKPSFESQ
stoichiometry N: 2
